The assay has as its target FLAG-tagged BVLF1 (Epstein-Barr virus). Kind of assay: co-IP; FLAG-tagged BVLF1 as bait with BFRF2 together with BGLF3 or BGLF3(T42A) in 2089 cells; anti-FLAG M2 agarose; anti-Myc blot; quantitation from two independent experiments.

B1: BFRF2 (natural protein)
chain: MALFLARHTLSGTGAGCHGRGPAPDVSEVDLTLQALGERGFSRLLDLGLACLDLSYVEMREFVVWGRPPASEAAVASTPGSLFRSHSSAYWLSEVERPGGLVRWARSQTSPSSLTLAPHLGPSLLSLSVVTGGGCGAVAFCNAFFLAYFLVVRSVFPAFSDRIAAWICDRSPFCENTRAVARGYRGLVKRFLAFVFERSSYDPPLLRQNSRPVERCFAIKNYVPGLDSQSCVTVPSFSRWAQSHASELDPREIRDRVTPATAPSFVADHASALLASLQKKASDTPCGNPIQWMWYRLLVNSCLRSAHCLLPIPAVSEGGRKTGGGVGEELVGAGGPCLSRDVFVAIVSRNVLSCLLNVPAAGPRAYKCFRSHASRPVSGPDYPPLAVFCMDCGYCLNFGKQTGVGGRLNSFRPTLQFYPRDQKEKHVLTCHASGRVYCSNCGSAAVGCQRLAEPPSARSGWRPRIRAVLPHNAAYELDRGSRLLDAIIPCLGPDRTCMRPVVLRGVTVRQLLYLTLRTEARAVCSICQQRQAPEDARDEPHLFSSCLEVELPPGERCAGCRLYQTRYGTPAAQAHPPGEAGGGFSRQSPAS
B1 registered a fold increase of the BVLF1-BFRF2 interaction with wild type BGLF3 relative to no BGLF3 of 6 fold.
